{"source": "patent US20040235717", "key": {"[1]": {"molecular_target": "mtAR S210A (UniProt P10275)", "sequence (P10275 whole entry, looked up, stated change not applied)": "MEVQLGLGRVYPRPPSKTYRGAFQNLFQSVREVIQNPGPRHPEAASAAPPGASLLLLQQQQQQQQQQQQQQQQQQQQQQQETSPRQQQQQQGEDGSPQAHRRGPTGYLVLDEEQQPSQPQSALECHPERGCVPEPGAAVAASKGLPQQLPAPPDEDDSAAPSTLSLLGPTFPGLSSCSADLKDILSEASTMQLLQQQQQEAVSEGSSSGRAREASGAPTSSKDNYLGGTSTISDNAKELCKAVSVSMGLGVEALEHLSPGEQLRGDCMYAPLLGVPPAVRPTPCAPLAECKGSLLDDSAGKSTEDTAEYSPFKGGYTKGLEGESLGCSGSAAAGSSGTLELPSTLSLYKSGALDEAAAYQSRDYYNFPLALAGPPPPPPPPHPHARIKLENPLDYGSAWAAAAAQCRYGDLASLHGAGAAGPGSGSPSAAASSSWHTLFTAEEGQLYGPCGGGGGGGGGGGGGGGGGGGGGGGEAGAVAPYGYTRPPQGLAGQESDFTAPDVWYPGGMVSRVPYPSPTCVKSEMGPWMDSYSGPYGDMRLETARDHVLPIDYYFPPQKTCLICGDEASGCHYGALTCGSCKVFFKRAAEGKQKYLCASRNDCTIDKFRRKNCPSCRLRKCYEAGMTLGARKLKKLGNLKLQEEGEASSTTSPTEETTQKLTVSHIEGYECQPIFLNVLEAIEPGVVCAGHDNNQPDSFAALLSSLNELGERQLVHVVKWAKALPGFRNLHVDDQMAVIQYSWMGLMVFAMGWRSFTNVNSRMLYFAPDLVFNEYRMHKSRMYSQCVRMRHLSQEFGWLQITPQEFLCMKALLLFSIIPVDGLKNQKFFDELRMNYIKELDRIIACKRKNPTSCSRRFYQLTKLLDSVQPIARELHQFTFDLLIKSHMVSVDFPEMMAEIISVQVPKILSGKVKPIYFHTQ"}, "[2]": {"molecular_target": "mtAR S790A (UniProt P10275)", "sequence (P10275 whole entry, looked up, stated change not applied)": "as above"}}}
{"substance": "Akt/PKB (endogenous, LNCaP cells)", "values": [{"measurement": "in vitro phosphorylation of immunoprecipitated AR by Akt", "setting": "[1]", "result": "the degree of Akt phosphorylation of mtARS210A and mtARS790A, as compared to wtAR, was reduced significantly"}, {"measurement": "in vitro phosphorylation of immunoprecipitated AR by Akt/PKB", "setting": "[1]", "result": "the degree of phosphorylation of ARS210A and ARS790A by Akt/PKB, as compared to wtAR, was reduced significantly"}, {"measurement": "in vitro phosphorylation of immunoprecipitated AR by Akt", "setting": "[2]", "result": "the degree of Akt phosphorylation of mtARS210A and mtARS790A, as compared to wtAR, was reduced significantly"}, {"measurement": "in vitro phosphorylation of immunoprecipitated AR by Akt/PKB", "setting": "[2]", "result": "the degree of phosphorylation of ARS210A and ARS790A by Akt/PKB, as compared to wtAR, was reduced significantly"}]}
